According to patent publication US20240294670A1 (University of Texas, published 2024):

Legend:
Experiment in all cases: anti-His co-IP of rCHI3L1 from Kupffer cell lysate, MS; listed under 'proteins bound to CHI3L1'
Q3UQ71_MOUSE = molecular target: T1, Q3UQ71_MOUSE (mouse, UniProt Q3UQ71 1-554)
T1 construct: also called tr|Q3UQ71|Q3UQ71_MOUSE
T1 sequence: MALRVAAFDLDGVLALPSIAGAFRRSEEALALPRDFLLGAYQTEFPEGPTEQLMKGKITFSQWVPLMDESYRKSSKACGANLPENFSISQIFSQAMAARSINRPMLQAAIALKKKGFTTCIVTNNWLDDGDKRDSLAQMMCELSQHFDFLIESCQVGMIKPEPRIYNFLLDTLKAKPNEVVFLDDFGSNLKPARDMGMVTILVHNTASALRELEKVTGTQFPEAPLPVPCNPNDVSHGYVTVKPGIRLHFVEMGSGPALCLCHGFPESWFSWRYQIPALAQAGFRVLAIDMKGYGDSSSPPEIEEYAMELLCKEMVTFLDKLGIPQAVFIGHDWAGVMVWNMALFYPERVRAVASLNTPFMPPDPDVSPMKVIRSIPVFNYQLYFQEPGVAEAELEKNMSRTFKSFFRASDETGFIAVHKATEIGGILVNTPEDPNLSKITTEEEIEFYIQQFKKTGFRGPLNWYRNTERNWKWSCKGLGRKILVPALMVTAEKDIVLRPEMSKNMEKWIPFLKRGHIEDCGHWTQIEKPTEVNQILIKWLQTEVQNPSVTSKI
Procedure: (§1) CHI3L1 interacts with CD44 on KCs. To further understand how CHI3L1 mediates the function of KCs to recruit platelets, the inventors set out to identify its receptor on KCs. They isolated KCs from WT mice treated with APAP for 3 h and incubated the cells with His-tagged rCHI3L1. The cell lysate was subjected to immunoprecipitation using an anti-His antibody. The “pulled down” fraction was subjected to LC/MS analyses. A partial list of proteins identified, including CHI3L1 itself, is shown in (Extended Data Table 1). Because CD44 is a cell membrane protein, the inventors decided to investigate it is a receptor for CHI3L1. They performed/immunoprecipitation experiments using liver homogenates obtained from WT and CD44^{-/-} mice after APAP treatment. […] Moreover, the inventors incubated rhCHI3L1 with human CD44 and then immunoprecipitated with an anti-CD44 antibody. The data confirmed a direct binding between CHI3L1 and CD44 (FIG. 3C). Consistent with the notion that many cell types express CD44, they detected CD44 express on various hepatic non-parenchymal cells (NPCs) except B cells and DCs (summarized in Extended Data Table 2). However, when they incubated liver NPCs with His-tagged rCHI3L1, the inventors observed that the only CD44-expressing cells that could bind to CHI3L1 were KCs (FIG. 3D).

Q3UEQ9_MOUSE = molecular target: T2, Q3UEQ9_MOUSE (mouse, UniProt Q3UEQ9 28-926)
T2 construct: also called tr|Q3UEQ9|Q3UEQ9_MOUSE
T2 sequence: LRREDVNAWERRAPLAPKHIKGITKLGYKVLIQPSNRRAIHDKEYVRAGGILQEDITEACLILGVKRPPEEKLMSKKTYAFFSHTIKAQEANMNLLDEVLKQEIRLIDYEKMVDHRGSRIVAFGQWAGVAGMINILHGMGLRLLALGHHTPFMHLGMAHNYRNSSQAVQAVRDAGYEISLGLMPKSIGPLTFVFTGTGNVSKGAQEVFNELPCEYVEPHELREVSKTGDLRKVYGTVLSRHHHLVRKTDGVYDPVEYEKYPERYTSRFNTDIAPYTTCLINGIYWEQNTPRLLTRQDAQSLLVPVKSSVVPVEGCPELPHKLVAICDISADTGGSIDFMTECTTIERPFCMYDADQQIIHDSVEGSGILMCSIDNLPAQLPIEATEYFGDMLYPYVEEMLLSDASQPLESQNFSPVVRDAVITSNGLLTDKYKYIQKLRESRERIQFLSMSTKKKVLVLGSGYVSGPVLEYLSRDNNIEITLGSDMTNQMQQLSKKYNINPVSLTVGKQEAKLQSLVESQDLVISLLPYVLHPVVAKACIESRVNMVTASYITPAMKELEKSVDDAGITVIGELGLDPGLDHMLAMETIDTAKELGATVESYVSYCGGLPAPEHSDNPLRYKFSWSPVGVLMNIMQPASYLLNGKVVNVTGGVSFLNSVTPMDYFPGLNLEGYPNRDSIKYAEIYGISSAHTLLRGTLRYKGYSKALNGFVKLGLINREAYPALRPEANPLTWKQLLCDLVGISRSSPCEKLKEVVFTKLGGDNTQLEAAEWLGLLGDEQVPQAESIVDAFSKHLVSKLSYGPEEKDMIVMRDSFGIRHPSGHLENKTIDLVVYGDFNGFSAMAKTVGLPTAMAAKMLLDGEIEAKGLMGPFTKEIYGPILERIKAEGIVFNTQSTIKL
Procedure: as §1

D3Z041_MOUSE = molecular target: T3, D3Z041_MOUSE (mouse, UniProt D3Z041 1-699)
T3 construct: also called tr|D3Z041|D3Z041_MOUSE
T3 sequence: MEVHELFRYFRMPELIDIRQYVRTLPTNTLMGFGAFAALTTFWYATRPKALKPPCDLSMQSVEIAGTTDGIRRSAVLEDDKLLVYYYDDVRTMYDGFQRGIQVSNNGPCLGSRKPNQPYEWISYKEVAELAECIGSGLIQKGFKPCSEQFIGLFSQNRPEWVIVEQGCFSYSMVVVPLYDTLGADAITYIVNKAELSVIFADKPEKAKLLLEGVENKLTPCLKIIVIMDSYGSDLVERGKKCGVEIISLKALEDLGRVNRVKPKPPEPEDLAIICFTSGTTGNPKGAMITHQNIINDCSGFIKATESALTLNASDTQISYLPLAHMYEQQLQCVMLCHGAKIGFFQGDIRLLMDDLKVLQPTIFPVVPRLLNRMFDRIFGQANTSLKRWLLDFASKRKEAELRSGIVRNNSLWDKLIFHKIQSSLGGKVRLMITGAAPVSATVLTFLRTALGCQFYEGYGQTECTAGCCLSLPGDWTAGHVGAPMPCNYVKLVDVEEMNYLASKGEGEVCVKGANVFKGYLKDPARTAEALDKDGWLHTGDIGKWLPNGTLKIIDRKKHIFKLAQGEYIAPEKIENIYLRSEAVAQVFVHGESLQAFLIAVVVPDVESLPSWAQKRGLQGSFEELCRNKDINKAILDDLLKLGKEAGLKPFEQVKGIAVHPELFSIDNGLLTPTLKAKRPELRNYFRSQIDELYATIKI
Procedure: as §1

Measured: binding result

B1: recombinant mouse CHI3L1 (ligand)
chain: not shown
notes: His-tagged; also called mCHI3L1; mChi3l1
binds: Q3UQ71_MOUSE | Q3UEQ9_MOUSE | D3Z041_MOUSE
